For test [1], the target named is VpreB1 protein (Homo sapiens (Human)) (UniProt P12018). As to the kind of experiment: flow cytometry, 1 ug FITC-conjugated antibody on 1x10^6 CA46 cells (endogenous VpreB1).
For test [2] the target is unchanged. The test can be described thus: flow cytometry, 1 ug FITC-conjugated antibody on 1x10^6 HT cells (no detectable VpreB1 mRNA in Table 1; in effect a VpreB1-negative line).
Test [3] shares this target. As to the kind of experiment: flow cytometry, 1 ug FITC-conjugated antibody on 1x10^6 GA-10 cells (endogenous VpreB1).

UniProt P12018, sequence (P12018 20-145 limits assumed): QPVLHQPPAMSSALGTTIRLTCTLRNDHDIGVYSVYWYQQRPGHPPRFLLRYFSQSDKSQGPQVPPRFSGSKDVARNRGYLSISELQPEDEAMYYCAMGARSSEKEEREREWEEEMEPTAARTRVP

For “FITC-conjugated anti-VpreB1 monoclonal antibody (Serotec, Raleigh, N.C.)”, the % of cells surface labeled (gate M1) worked out at 69% in test [1], 3% in test [2] and 91% in test [3].
